Measurements published in publication PMC6162344.

Assays:
[1] = molecular target: Taxol-stabilised microtubules (TIRF) (pig) (UniProt P02550); assay: TIRF microscopy of single particles on microtubules
CENP-OPQU (human) = CENP-OPQU (human) (UniProt Q9BU64); assay: AUC
Chain of CENP-OPQU (human) (Q9BU64 whole entry, chain 1 of 4): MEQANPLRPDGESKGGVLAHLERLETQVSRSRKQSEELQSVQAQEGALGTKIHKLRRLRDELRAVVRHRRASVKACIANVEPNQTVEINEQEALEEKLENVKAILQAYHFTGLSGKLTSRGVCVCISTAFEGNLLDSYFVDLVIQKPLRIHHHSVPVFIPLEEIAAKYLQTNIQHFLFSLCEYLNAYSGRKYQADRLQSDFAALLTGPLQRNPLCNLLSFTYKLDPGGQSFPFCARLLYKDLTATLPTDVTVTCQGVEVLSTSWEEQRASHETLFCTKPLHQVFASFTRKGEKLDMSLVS
Chain of CENP-OPQU (human) (Q6IPU0 whole entry, chain 2 of 4, further chain): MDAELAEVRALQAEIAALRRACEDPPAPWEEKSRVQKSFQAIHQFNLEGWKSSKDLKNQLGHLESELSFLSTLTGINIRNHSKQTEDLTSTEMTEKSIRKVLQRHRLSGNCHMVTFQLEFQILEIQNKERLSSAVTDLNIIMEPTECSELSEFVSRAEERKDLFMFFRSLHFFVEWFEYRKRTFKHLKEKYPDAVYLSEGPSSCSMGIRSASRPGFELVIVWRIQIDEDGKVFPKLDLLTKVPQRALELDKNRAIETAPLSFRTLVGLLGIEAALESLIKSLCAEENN
Chain of CENP-OPQU (human) (Q7L2Z9 whole entry, chain 3 of 4, further chain): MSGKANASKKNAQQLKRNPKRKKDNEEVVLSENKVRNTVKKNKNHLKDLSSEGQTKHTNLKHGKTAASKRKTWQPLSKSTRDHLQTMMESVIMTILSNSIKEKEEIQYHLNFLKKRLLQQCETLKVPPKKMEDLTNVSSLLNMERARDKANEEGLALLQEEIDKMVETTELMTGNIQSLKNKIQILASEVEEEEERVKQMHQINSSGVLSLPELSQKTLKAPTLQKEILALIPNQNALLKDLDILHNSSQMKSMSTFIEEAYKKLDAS
Chain of CENP-OPQU (human) (Q71F23 whole entry, chain 4 of 4, further chain): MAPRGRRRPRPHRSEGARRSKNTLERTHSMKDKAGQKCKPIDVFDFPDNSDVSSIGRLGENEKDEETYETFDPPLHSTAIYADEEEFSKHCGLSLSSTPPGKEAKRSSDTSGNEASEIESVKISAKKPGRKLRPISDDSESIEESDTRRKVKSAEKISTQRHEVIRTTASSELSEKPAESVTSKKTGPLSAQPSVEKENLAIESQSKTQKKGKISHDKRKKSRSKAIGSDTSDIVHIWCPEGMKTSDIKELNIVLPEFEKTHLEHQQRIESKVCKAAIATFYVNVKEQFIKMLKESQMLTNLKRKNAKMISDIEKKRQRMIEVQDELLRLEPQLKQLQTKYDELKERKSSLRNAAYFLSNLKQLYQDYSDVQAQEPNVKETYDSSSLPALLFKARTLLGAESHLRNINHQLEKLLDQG

Chain of CENP-OPQU (Q9BU64 whole entry): as the sequence (Q9BU64 whole entry, chain 1 of 4) above
Chain of CENP-OPQU (Q6IPU0 whole entry): as the sequence (Q6IPU0 whole entry, chain 2 of 4, further chain) above
Chain of CENP-OPQU (Q7L2Z9 whole entry): as the sequence (Q7L2Z9 whole entry, chain 3 of 4, further chain) above
Chain of CENP-OPQU (Q71F23 whole entry): as the sequence (Q71F23 whole entry, chain 4 of 4, further chain) above

Substance “CENP-OPQU (from UniProt Q9BU64 1-300; Q6IPU0 1-288; Q7L2Z9 1-268; Q71F23 1-418) (complex)” has a mean time associated [1] of 131 s.
Substance “CENP-R (co-expressed or co-lysed with CENP-OPQU subunits) (from UniProt Q13352 1-177) (natural protein)” has a stoichiometry N (CENP-OPQU (human)) of 1.
